Measured values reported in patent US20040072207.

Test system: raptor (Regulatory Associated Protein of mTOR), endogenous human protein

“mTOR (mammalian target of rapamycin), endogenous protein of human cell lines” was tested, and the “in vitro kinase activity of mTOR towards S6K1 (32P incorporation into GST-S6K1)” value was “the in vitro kinase activity of mTOR towards S6K1 inversely correlated with the amount of raptor recovered with mTOR”.
